Test results as given in patent publication US20040081655A1, “Methods and compositions comprising polycationic compounds” (priority 2001, published 2004).
No end group written: not given here.

Key:
[1] = Depot formation at the injection site, fluorescence-labelled compounds, photos (Example 2a); set-up: species or system Mice C57Bl/6; conditions: mouse, in vivo, sc
Method: On day 0 mice were injected subcutaneously into the right flank with a total volume of 100 μl containing the above mentioned compounds. Animals were sacrificed at the indicated time points after injection and photos were taken from the injection sites (FIG. 2a).

[2] = FACS analyses of lymphoid and non-lymphoid tissues for CpG-ODN-Cy5 (Example 2b); set-up: species or system Mice C57B1/6; conditions: mouse, in vivo, sc
Method: Mice were injected subcutaneously into the right flank with a total volume of 100 μl containing the above mentioned compounds. One day after injection, mice were sacrificed and FACS-analyses were performed from secondary lymphoid organs (draining lymph node, spleen) as well as non-lymphoid tissues (lung, liver, kidney, heart) (FIG. 2b).

[3] = Depot formation at the injection site at day 4, labelled TRP-2 peptide/pR60/CpG-ODN (Example 3); type: in vivo, Mice C57Bl/6; conditions: injected either alone or in combination with CpG-ODN-Cy5
Method: On day 0 mice were injected subcutaneously into the right flank with a total volume of […] containing the above mentioned compounds. Animals were sacrificed at day 4 after injection and photos were taken from the injection sites (FIG. 3).

Substance: CpG-ODN-Cy5: phosphothioate-modified, Cy5-labeled oligodinucleotides containing a CpG motif: tcc atg acg ttc ctg atg ct (DNA TCCATGACGTTCCTGATGCT; DNA, all phosphorothioate, methylation of C not given here; Cy5 label)
- distribution of CpG-ODN-Cy5 after injection [1]: distribution of CpG-ODN-Cy5 all over the skin
- CpG-ODN-Cy5 in secondary lymphoid organs and non-lymphoid tissues (FACS) [2]: detectable in secondary lymphoid organs (draining lymph node, spleen) and non-lymphoid tissues (lung, liver, kidney, heart)

Substance: TRP-2181-188-peptide-FITC: FITC-labeled TRP-2-Peptide (VYDFFVWL), MHC class I (H-2 Kb) restricted epitope of mouse tyrosinase related protein-2 (also: FITC label, site not given here)
- presence of the labelled peptide at the injection site [3]: not detectable at the injection site at day 4
